In one assay the target is T1, PTP4A3.
T1 construct: also called His-PTP4A3 (R&D Systems)
The assay can be described thus: ELISA on coated protein. The procedure:
(§1) Recombinant purified ECDs (50-150 ng) of each putative target protein were coated, incubated with 150 ng of the indicated primary antibody, and binding was detected using a peroxidase-conjugated anti-human Fab secondary antibody. Heatmap represents averages of technical triplicates. (8B) Target validation via siRNA knockdown. H929 cells were transfected with siRNA pools targeting the putative antibody targets ICAM1, CADM1, and PTPRG. Cells were then subjected to cognate IgG binding analysis via flow cytometry. (NT, non-targeting siRNA).
(§2) ELISA ELISA was conducted as described previously. Briefly, 50-150 ng of antigen was coated overnight in half-area 96-well plates at 4° C., blocked with 3% BSA at 37° C. for 1 h, and 150 ng of chimeric rabbit/human IgG1 was added, incubating for 2 h at 37° C. […] After incubating at 37° C. for 15 min-1 h (depending on intensity of controls), data were acquired using a SpectraMax M5 plate reader (Molecular Devices).
Background: An ELISA detects its analyte on a solid surface through an enzyme-linked reagent.

Another assay deals with T2, ANXA1.
T2 construct: also called ANXA1-His (R&D Systems); not shown: His tag
T2 chain: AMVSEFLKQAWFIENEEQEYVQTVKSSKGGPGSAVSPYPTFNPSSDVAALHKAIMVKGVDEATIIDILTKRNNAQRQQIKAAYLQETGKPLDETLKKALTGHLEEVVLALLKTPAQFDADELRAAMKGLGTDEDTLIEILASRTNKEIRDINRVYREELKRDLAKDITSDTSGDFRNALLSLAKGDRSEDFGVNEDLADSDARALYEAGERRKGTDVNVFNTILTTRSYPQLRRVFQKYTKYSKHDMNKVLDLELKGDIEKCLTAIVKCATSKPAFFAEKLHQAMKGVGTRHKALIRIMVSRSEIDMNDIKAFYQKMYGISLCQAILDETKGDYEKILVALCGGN
The assay can be described thus: ELISA on coated protein. The protocol:
as §1, §2

The next assay deals with T3, IGSF11.
T3 construct: also called IGSF11-Fc (R&D Systems)
T3 chain: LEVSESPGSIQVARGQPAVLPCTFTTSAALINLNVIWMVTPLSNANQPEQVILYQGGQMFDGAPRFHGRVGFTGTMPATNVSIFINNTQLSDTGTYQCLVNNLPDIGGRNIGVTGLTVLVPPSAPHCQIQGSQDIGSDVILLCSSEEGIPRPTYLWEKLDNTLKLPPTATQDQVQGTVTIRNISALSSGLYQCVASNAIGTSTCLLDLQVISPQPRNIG
Kind of assay: ELISA on coated protein. The procedure: as §1, §2

A further assay deals with T4, ICAM1-Fc (R&D Systems) (human, UniProt P05362 28-480).
T4 construct: Bought; also called ICAM-1/CD54; not shown: Fc of the bought fusion protein
Kind of assay: ELISA on coated protein. The procedure: as §1, §2

The target of assay [1] is T5, GARS, endogenous in H929 multiple myeloma cells (human, UniProt P41250 37-739, limits assumed).
T5 construct: Native protein pulled down from H929 lysates; also called Glycyl-tRNA synthetase; GlyRS
T5 sequence: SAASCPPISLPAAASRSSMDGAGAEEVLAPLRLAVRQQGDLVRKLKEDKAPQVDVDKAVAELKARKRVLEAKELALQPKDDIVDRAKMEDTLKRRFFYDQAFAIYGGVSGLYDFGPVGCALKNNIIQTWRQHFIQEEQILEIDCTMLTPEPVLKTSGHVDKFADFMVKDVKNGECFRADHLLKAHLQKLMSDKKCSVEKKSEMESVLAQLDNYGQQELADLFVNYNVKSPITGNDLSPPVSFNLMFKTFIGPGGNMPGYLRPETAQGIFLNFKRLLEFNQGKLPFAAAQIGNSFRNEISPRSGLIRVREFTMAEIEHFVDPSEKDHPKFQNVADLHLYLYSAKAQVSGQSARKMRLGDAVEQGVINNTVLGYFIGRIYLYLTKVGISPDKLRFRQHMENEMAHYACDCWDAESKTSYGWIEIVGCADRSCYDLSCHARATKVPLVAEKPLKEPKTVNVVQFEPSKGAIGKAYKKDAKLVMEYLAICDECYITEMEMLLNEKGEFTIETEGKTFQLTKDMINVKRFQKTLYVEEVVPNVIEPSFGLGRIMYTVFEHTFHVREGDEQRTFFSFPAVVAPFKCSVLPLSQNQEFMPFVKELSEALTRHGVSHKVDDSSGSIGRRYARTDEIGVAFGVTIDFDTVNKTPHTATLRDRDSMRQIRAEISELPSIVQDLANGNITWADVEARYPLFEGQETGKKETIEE
Kind of assay: flow cytometry, H929 + CDH18 siRNA; None 0.19; surface target GARS putative. Background: Flow cytometry measures light scatter and fluorescence of single cells or particles in a stream.

The target in assay [2] is T5, GARS, endogenous in H929 multiple …. Kind of assay: flow cytometry, H929 + CDH18 siRNA; None 443; surface target GARS putative.

T1 sequence (chain, as listed by the source limits assumed): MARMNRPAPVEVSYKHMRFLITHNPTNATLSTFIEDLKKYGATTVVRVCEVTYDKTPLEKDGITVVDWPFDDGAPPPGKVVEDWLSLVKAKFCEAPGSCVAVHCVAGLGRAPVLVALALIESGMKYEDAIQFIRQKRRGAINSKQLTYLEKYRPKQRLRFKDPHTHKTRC
T4 sequence (P05362 28-480): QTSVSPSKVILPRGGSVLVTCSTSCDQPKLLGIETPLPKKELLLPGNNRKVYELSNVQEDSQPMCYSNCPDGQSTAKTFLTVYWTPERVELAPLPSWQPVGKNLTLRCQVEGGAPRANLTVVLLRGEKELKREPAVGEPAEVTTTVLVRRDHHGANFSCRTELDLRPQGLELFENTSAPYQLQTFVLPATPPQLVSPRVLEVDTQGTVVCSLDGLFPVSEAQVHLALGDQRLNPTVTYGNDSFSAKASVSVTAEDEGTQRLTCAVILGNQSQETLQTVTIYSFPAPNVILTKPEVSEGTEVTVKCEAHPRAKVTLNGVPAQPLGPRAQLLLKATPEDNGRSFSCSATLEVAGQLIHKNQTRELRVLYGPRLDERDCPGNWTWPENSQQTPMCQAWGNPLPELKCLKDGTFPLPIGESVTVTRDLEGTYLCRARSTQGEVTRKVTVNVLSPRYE

B1: HW-101 chimeric rabbit-human IgG1 LA/LA/PG (antibody, V domains shown)
VH: QEQLVESGGRLVTPGTPLTLTCKASGFSLGKYDMSWVRQAPGKGLEWIGTIYAGSGSTWYASWAKGRFTISKTSTTVDLKMTSLTTEDTATYFCARDFLGVNSIWGPGTLVTISS
VL: SFVLTQPASVQVNLGQTVSLTCTADTLSRSYASWYQQKPDQAPVLLIHRDTSRPSGVPDRFSGSNSGNTATLTISGAQAGDEADYYCATSDGSGSNFHFVFGGGTQLTVTG
notes: Fc-silenced (L234A/L235A/P329G) IgG1, lambda; Alexa Fluor 647-labeled in single-step flow cytometry; Cluster C-97
Consider B1, for which the binding result in the assay with PTP4A3, with ANXA1, with IGSF11 and in the assay with ICAM1-Fc (R&D Systems) was “no binding (tested: 150 ng IgG1 per well)” in each case.

B2: TH9-0022 (antibody, human IgG1, kappa, L234A L235A, V domains shown)
VH: QSLEESGGRLVTPGTPLTLTCTVSGFSLSSYAMNWVRQAPGKGLEWIGIINSYGSTYYASWAKGRFTISKTSTTVDLKITSPTTEDTATYFCARVTYDSYGYGYAPYGMDLWGPGTLVTVSS
VL: LVMTQTPSSTSNAVGGTVTIKCQASQSIGNVLAWYQQKPGQPPKLLIYAASTLASGVPSRVGGSRSGTEYTLTISGVQREDAATYYCLGSDSDSDIAFGGGTELEILR
notes: also called TH9-022; negative control IgG1
As to B2, the binding result with PTP4A3, with ANXA1, with IGSF11 and with ICAM1-Fc (R&D Systems) was “no binding (tested: 150 ng IgG1 per well)” each time.

B3: HW-8 chimeric rabbit-human IgG1 LA/LA/PG (antibody, V domains shown)
VH: QSLEESGGRLVTPGTPLTLTCTVSGFSLSSYAMSWVRQAPGKGLEWIGAISTGGSTTYASWAKGRFTISKTSSTTVDLKMTSLTTEDTATYFCVRHFRLWGPGTLVTISS
VL: QVLTQTPSSVSAAVGGTVTIKCQASQSIGSALAWFQQKPGQRPKLLIYRASNLASGVPSRFKGSGSGTEFALTISGVQREDAATYYCLGGAAAVWAFGAGTNVEIKR
notes: Fc-silenced (L234A/L235A/P329G) IgG1, kappa; Alexa Fluor 647-labeled in single-step flow cytometry; Cluster C-45
B3: the “Cells stained (%)” value in assay [1] was determined as 99.4%. In addition, the binding result in the assay with PTP4A3, with ANXA1, with IGSF11 and in the assay with ICAM1-Fc (R&D Systems) was “no binding (tested: 150 ng IgG1 per well)” in each case. In addition, the “mAb binding (MFI)” value in assay [2] came out at 75300.

For the origin of these results see patent US20260049134A1 (UNIVERSITY OF FLORIDA RESEARCH FOUNDATION, published 2026).
